Results taken from the RNAGym collection of RNA variant scans (doi:10.1093/nar/gkz1192).

B1: CPEB3 Ribozyme (parent)
chain: UAACAGGGGGCCACAGCAGAAGCGUUCACGUCGCAGCCCCUGUCAGAUUCUGGUGAAUCUGCGAAUUCUGCUGUAUAUCUC

Variants of: B1
Assay: self-cleavage, relative activity (ratio to wild type); higher = more cleavage; in vitro, sequencing
Procedure, shortened: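 Relative activity was defined as the cleaved/total read fraction for a variant divided by the same fraction for the unmutated ribozyme. CPEB3 self-cleaving ribozyme libraries were made by rounds of error-prone PCR, barcoded, and transcribed in vitro with T7 RNA polymerase for 5 hours at 37°C, and cleavage ran through transcription plus a 15 min DNase I step before EDTA. Illumina sequencing of template-switched reverse transcripts gave the reads, and DNA sequencing mapped the barcodes. Averages come from three batches, using variants with at least 5 reads.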

Variant | self-cleavage
A15C U48C | 0.47
A15G A45C | 0.31
A15G A45G | 0.66
A15G A45U | 0.44
A15G A64G | 0.65
A15G A64U | 0.33
A15G A64C | 0.25
A15G U51G | 0.62
A15G U51C | 0.74
A15G U51A | 0.9
C14G U72C | 0.69
A15C A20C | 0.19
A15C A20U | 0.35
A15C A20G | 0.66
A15C A18U | 0.32
A15C A18C | 0.35
A15C A18G | 0.41
C14G A35G | 1.24
C14G U74C | 0.89
C14U U67A | 0.42
C14U U67C | 0.23
C14U U31A | 0.74
C14U U25A | 0.44
C14U U25C | 0.28

Variant | self-cleavage
A15G U60C | 0.33
A15G U60A | 0.35
A15G U60G | 0.34
A15C U43C | 0.46
A15C U43G | 0.25
C14U A56U | 0.5
C14U A56G | 1.23
A15G C23A | 0.19
A15G C23U | 0.29
A15G C23G | 0.42
A15G U49A | 0.61
A15G U49G | 0.52
A15G U49C | 0.28
C14U G22A | 0.41
C14U G22C | 0.18
C14U G63A | 1.26
C14G G61A | 0.42
A15G U69C | 0.3
A15G U69G | 0.32
A15G U69A | 0.35
A15C U66C | 0.29
A15C U66G | 0.45
A15G U31C | 0.36
A15G U31A | 0.63

Variant | self-cleavage
A15C C34U | 0.29
A15G C68A | 0.2
A15G C68U | 0.67
A15G C34A | 0.2
A15G C34U | 0.25
A15G C34G | 0.29
A15C G33C | 0.16
A15C C17U | 0.35
A15G G22A | 0.22
A15G G22U | 0.46
A15G U76A | 0.94
A15G U76C | 0.89
A15C C68U | 0.59
C14U U48C | 0.97
C14U U48A | 0.71
C14U A65U | 0.34
A15G C38A | 0.42
A15G C38U | 0.81
C14U A28G | 0.76
C14U A28U | 1.21
A15C C40U | 0.72
A15G U48C | 0.46
A15G U48G | 0.72
A15G U48A | 0.35

Variant | self-cleavage
C14U U76C | 1.15
C14U A75U | 1.23
C14U A75G | 1.23
A15G U54A | 0.95
A15G U54G | 0.96
A15G U54C | 0.87
A15G C71U | 0.28
A15G A65G | 0.39
A15G A65U | 0.23
C14U A18U | 0.44
C14U A18G | 0.82
A15G G16U | 0.25
A15G G16A | 0.33
C14U U54C | 1.25
C14U U54G | 1.16
C14U U43A | 1.18
C14U U43G | 0.27
C14U U43C | 1.08
C14G U25C | 0.17
A15C U58A | 0.41
A15C U58C | 0.21
A15C U58G | 0.29
A15G U43G | 0.28
A15G U43C | 0.47

Variant | self-cleavage
A15G U43A | 1.05
A15G C44A | 0.28
A15G C44U | 0.32
A15C A57G | 0.43
A15C A57U | 0.54
A15C U25A | 0.23
A15C U25C | 0.23
A15C U54C | 0.98
C14U A77G | 1.34
C14U A77C | 0.53
A15G A57U | 0.56
A15G A57G | 0.63
A15G U26A | 0.71
A15G U26G | 0.55
A15G U26C | 0.41
A15C U60C | 0.28
A15C | 0.92
A15G | 0.92
A15C U67C | 0.18
A15G G33C | 0.29
A15G G33A | 0.24
A15G G33U | 0.12
A15C U76A | 1.19
C14U C79A | 1.29

Variant | self-cleavage
A15G U78A | 0.96
C14U C32G | 0.1
C14U C32A | 0.2
A15G G24U | 0.12
A15G G24A | 0.39
A15C U78C | 0.87
A15C U78A | 1.05
A15G C39U | 0.98
A15G C39A | 0.32
A15G C39G | 0.29
A15C C59U | 0.85
A15G A28U | 0.39
A15G A28G | 0.49
A15G A28C | 0.53
C14G U49C | 0.33
C14U G46A | 0.12
C14U G46U | 0.27
A15G G52C | 0.88
A15G G52A | 0.99
C14U A35G | 1.38
C14U A35C | 1.11
C14U A35U | 1.04
C14U A57G | 1.1
C14U A57C | 0.66

Variant | self-cleavage
C14G G53A | 1.19
C14U U58C | 0.77
A15G C27U | 0.27
A15G C27A | 0.21
C14G A56G | 1
C14U U72C | 1.21
C14U G52C | 1.23
A15C U41C | 1.13
A15C U41G | 0.15
A15C U41A | 0.22
C14A U76C | 0.94
A15G U58A | 0.32
A15G U58C | 0.44
A15C A35G | 1.08
C14U C40U | 1.07
C14U C40A | 0.24
A15G A21G | 0.49
A15G A21U | 0.33
A15G A21C | 0.35
C14G U54C | 1.03
A15C G24A | 0.18
A15C U80A | 1.22
A15G U41C | 0.74
